Columns and labels:
Type in all cases: cell-based
[1] = system: human microvessel endothelial cells (HMVEC); assay: Adhesion assay on coated stainless steel disks, HMVEC; details: FIG. 6
Source text: Given that an important aspect of the present invention is the prevention of restenosis and thrombosis, we conducted experiments to address whether endothelial cells would adhere to metal devices that had been coated with tropoelastin. Briefly, tropoelastin was covalently conjugated to a stainless steel disk approximately 6 mm in diameter. Tropoelastin was linked to the disk surface using an intermediate polysaccharide molecule. An exemplary process for covalently linking tropoelastin to the disk surface, and the process used here, is used in the manufacture of Genous Bio-Engineered R Stents. These disks provided ample surface area for microscopic imaging. Disks were also similarly coated with anti-CD34 antibody and with polysaccharide vehicle alone. Stents coated with anti-CD34 antibody using a similar process (Genous Bio-Engineered R Stents) are currently in human clinical trials and have promise to promote capture of circulating endothelial cells and endothelial progenitor cells and to accelerate endothelialization.
Human microvessel endothelial cells (HMVEC) were cultured with these coated disks, and adhesion of the cells to the coated disks was assayed. […]

[2] = system: human aortic endothelial cells (HuAEC); assay: Boyden chamber migration assay, HuAEC; details: FIG. 3
Protocol: Migration of HuAECs to BSA, fibronectin, and recombinant tropoelastin was measured.
We assayed the hexamer VGVAPG (SEQ ID No. 5). This hexameric sequence is repeated multiple times within the full length tropoelastin protein. […] We additionally assayed a 17 residue C-terminal fragment of the tropoelastin protein. This 17 amino acid residue is depicted in SEQ ID NO: 6 (IFPGGACLGKACGRKRK).
Briefly, 16 h before the assay, 70% confluent 75 cm^2 flasks of human melanoma A2058 cell (ATCC, passage 3-12) or human aortic endothelial cells (HAEC; Cambrex, passage 4-7) were kept in basal media (dMEM+0.1% BSA, or EBM-2+1% FCS, respectively). Cells were lifted with 0.25% Trypsin/1 mM EDTA, diluted in 0.5% BSA (dMEM) and washed 3 times in basal media (dMEM+0.1% BSA) or (EBM-2+0.1% FCS,) and recovered in suspension at working density (2×10^6/ml for A2058 or 1.5×10^6 HAEC) for 1 h at 37° C. (5% CO2). For migration-inhibition assays, the cells were preincubated during the recovery period for 30 minutes in 25 μg/ml anti-integrin antibodies (Chemicon, Temecula, Calif.) or control IgG (Jackson ImmunoResearch, Inc.). All migration assays were performed in triplicate in a 48-well Boyden chamber apparatus (NeuroProbe, Cabin John, Md.). The recovered cells were added to the bottom chambers in a volume of 30 μl. The wells were overlayed with an 8 μm-pore polycarbonate membrane (NeuroProbe, Cabin John, Md.) and coated with 100 μg/ml Rat tail collagen (Trevigen, Gaithersburg, Md.) for A2058 cells or acetylated 1% gelatin from porcine skin (Sigma, St. Louis, Mo.) for HAEC. The apparatus was assembled and stored inverted at 37° C. (5 CO2) for a 2 h adhesion-period. The apparatus was re-inverted and 52 μl of the chemoattractants, 10 mg/ml Fibronectin, 200 ng/ml Tropoelastin, 10 μM elastin-derived peptides; VGVAPG (SEQ ID No. 5), and IFPGGACLGKACGRKRK (SEQ ID No. 6 (Cterm peptide) or 0.1% BSA/dMEM (diluent, random migration control), were added to the upper chambers and the migration was allowed to proceed for 2 h in a humidified incubator at 37° C. (5% CO2). The membranes were then removed, fixed in methanol, stained with a Hema 3 stain set (Fisher Scientific, Pittsburgh, Pa.) and mounted migrated-side down to a 50×75 mm glass slide. Before 90% mounting medium (in xylenes) was applied, the non-migrated cells were removed from the exposed, non-migrated face of the membrane with a moistened swab. Readings represent the number of cells migrating through the membrane (the sum of two high power X 20 fields/well, averaged for each sextuplicate-well set).

[3] = system: A2058 human melanoma cells; assay: Cell adhesion assay, A2058 cells
Protocol: A2058 cells were assayed for adherence to substrates coated with BSA (control), fibronectin, tropoelastin, or a bioactive fragment of tropoelastin corresponding to a single repeat of the hexameric sequence VGVAPG (SEQ ID No. 5). In comparison to adherence to BSA, A2058 cells adhered to substrates coated with fibronectin tropoelastin, or a bioactive fragment of tropoelastin.
Cells were harvested with 0.25% trypsin/1 mM EDTA, washed three times in adhesion buffer (0.5% BSA in basal medium), suspended at a working density of 5×10^5/ml in adhesion buffer, and then allowed to recover for 1 h at 37° C. (5% CO2). For integrin-blocking assays, 25 μg/ml anti-integrin antibodies (Chemicon, Temecula, Calif.) or control IgG (Jackson ImmunoResearch Laboratories, Inc, West Grove, Pa.) were added to the cell suspension during the recovery period. During the cell recovery, the coated 96-well plates were washed twice in dPBS and blocked for 1 h at 25° C. in 5.0% BSA (dPBS). The blocking solution was removed, and the wells were washed twice in dPBS. Recovered cells were added to the coated wells in a volume of 100 μl per well and placed at 37° C. for 30 minutes (5% CO2). Following this incubation, the assay plate was inverted and assay wells were washed twice with 100 μl dPBS to remove non-specifically adhered cells. The wells were then fixed in Zamboni fixative, stained with Gill 1 hematoxylin, and overlayed with 80% glycerol. The assay was imaged at 100× magnification, capturing 3 random fields/well on a Zeiss Axiovert 200 inverted microscope equipped with a Zeiss Axiocam digital camera. Readings represent the number of adherent cells/well (average six high powered 100× fields, three taken from each of two separate wells).

B1: tropoelastin: recombinant human tropoelastin lacking native signal sequence, 10× His tag and Factor Xa site on N-terminus, 706 amino acid residues (SEQ ID NO: 4) (protein, listed as Homo sapiens)
chain: MGHHHHHHHHHHSSGGIEGRGGVPGAIPGGVPGGVFYPGAGLGALGGGALGPGGKPLKPVPGGLAGAGLGAGLGAFPAVTFPGALVPGGVADAAAAYKAAKAGAGLGGVPGVGGLGVSAGAVVPQPGAGVKPGKVPGVGLPGVYPGGVLPGARFPGVGVLPGVPTGAGVKPKAPGVGGAFAGIPGVGPFGGPQPGVPLGYPIKAPKLPGGYGLPYTTGKLPYGYGPGGVAGAAGKAGYPTGTGVGPQAAAAAAAKAAAKFGAGAAGVLPGVGGAGVPGVPGAIPGIGGIAGVGTPAAAAAAAAAAKAAKYGAAAGLVPGGPGFGPGVVGVPGAGVPGVGVPGAGIPVVPGAGIPGAAVPGVVSPEAAAKAAAKAAKYGARPGVGVGGIPTYGVGAGGFPGFGVGVGGIPGVAGVPGVGGVPGVGGVPGVGISPEAQAAAAAKAAKYGVGTPAAAAAKAAAKAAQFALLNLAGLVPGVGVAPGVGVAPGVGVAPGVGLAPGVGVAPGVGVAPGVGVAPGIGPGGVAAAAKSAAKVAAKAQLRAAAGLGAGIPGLGVGVGVPGLGVGAGVPGLGVGAGVPGFGAVPGALAAAKAAKYGAAVPGVLGGLGALGGVGIPGGVVGAGPAAAAAAAKAAAKAAQFGLVGAAGLGGLGVGGLGVPGVGGLGGIPPAAAAKAAKYGVAARPGFGLSPIFPGGACLGKACGRKRK
In the case of B1, the “HMVEC adhesion to coated disks relative to anti-CD34 antibody coated disks” value [1] is reported as “comparable to the adhesion of HMVECs to stainless steel disks coated with an anti-CD34 antibody”, the “adhesion of HMVEC to coated stainless steel disks” value ([1]; protein covalently conjugated to 6 mm disk) is reported as “promoted adhesion of human endothelial cells to a metal device” and the “level of HuAEC migration relative to comparator” value [2] is reported as “comparable to that of fibronectin”. For the same molecule, the “migration of HuAECs” value ([2]; 200 ng/ml Tropoelastin, 10 μM peptides, BSA control) was “promoted endothelial cell migration”, the “level of A2058 adhesion relative to fibronectin” value ([3]; 50 μg/ml of tropoelastin) was “similarly to 10 ug/ml of fibronectin” and the “dose dependence of A2058 adhesion” value ([3]; FIG. 4) was “dose dependent”. For the same molecule, the “adhesion of A2058 cells in comparison to BSA” value ([3]; FIG. 4, coated substrates, peptide 10 μM) was “adhered”.
